Experimental data reported in PMC6769691.

Tests used:
[1] = molecular target: TNFRs on MR300 cells (human (endogenous in MR300)); experiment: immunostaining of cells or tissue; competition on adherent MR300 cells (CNGRC-binder): hTNF-Fc (1:50) staining, 1 h at room temperature, Alexa-594 anti-human antibody, with 0.01 to 30 µg/mL unlabeled NGR-hTNF or hTNF; percent of control
[2] = molecular target: CD13 (aminopeptidase N), CNGRC-binder isoform, on HUVEC, mesoangioblasts (MB) and MR300 cells (human (endogenous in HUVEC, MB, MR300)) (UniProt P15144)
Chain of CD13 (aminopeptidase N), CNGRC-binder isoform, on HUVEC, mesoangioblasts (MB) and MR300 cells (human (endogenous in HUVEC, MB, MR300)) (P15144 whole entry, canonical isoform): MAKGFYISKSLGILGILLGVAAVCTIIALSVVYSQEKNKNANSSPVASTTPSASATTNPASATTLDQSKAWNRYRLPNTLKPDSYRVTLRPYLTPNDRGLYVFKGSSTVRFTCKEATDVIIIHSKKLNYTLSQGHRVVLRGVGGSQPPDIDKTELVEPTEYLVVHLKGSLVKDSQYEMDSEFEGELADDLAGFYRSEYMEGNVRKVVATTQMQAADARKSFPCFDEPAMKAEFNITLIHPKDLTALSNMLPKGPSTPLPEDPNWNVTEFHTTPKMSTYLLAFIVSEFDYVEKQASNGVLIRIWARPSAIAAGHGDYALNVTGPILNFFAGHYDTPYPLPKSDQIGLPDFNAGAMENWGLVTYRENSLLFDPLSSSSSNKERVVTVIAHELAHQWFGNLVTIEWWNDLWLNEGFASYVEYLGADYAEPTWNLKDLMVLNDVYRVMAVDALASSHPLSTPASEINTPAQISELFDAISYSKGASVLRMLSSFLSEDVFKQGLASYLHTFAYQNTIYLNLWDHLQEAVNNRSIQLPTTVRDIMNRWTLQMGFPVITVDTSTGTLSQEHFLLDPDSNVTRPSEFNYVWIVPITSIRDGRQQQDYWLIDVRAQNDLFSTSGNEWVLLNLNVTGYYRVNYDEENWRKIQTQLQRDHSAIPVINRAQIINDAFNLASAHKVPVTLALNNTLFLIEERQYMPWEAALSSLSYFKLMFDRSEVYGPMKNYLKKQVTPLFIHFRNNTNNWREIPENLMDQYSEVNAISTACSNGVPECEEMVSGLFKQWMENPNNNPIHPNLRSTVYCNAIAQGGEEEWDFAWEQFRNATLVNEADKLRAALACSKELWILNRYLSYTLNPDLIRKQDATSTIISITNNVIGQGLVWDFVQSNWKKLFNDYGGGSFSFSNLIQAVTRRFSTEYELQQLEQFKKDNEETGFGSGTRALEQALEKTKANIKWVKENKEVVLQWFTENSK

IC50 [1]	phosphorylation of Akt-Ser473 in MR300 cells treated with NGR-hTNF in comparison to hTNF (Kinexus phospho-site screen) [2]	phosphorylation of Erk1 in MR300 cells treated with NGR-hTNF in comparison to hTNF (Kinexus phospho-site screen) [2]	phosphorylation of Erk2 in MR300 cells treated with NGR-hTNF in comparison to hTNF (Kinexus phospho-site screen) [2]	Substance
20 nM	–	–	–	hTNF (ligand)
5 nM	-36%	-36%	-35%	NGR-hTNF (ligand)
